Experimental data published in the supplement of paper PMC10065799, “High-throughput profiling of sequence recognition by tyrosine kinases and SH2 domains using bacterial peptide display” (eLife, 2023).

How the values were obtained:
SHP2-C SH2 = experiment: SH2 binding enrichment of the phosphorylated peptide, bacterial display (enrichment ratio); higher = better substrate or ligand; peptides without Tyr show the background
Grb2 SH2 = Grb2 SH2 (UniProt P62993); experiment: as above
c-Src SH2 = experiment: as above
c-Abl (mouse) = experiment: phosphorylation enrichment, bacterial display (enrichment ratio); higher = better substrate or ligand; peptides without Tyr show the background
Hck = Hck (UniProt P08631); experiment: as above
Chain of Hck (P08631 whole entry, looked up): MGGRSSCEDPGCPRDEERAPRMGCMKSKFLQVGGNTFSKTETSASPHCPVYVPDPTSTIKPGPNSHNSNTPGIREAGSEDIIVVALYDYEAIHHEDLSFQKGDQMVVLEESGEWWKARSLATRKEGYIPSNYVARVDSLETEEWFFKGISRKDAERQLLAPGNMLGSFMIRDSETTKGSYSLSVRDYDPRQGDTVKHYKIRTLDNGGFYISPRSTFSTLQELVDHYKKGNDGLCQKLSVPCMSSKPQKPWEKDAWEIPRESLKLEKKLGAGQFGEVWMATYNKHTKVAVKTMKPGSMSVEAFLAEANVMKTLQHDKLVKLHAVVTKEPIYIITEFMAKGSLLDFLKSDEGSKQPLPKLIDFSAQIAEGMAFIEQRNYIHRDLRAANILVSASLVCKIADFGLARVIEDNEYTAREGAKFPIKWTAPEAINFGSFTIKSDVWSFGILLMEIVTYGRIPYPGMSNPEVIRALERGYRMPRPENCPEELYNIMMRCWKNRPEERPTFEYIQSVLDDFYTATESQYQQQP

c-Src = experiment: as above
AncSZ = experiment: as above
EPHB1 = EPHB1 (UniProt P54762); experiment: as above
Chain of EPHB1 (P54762 whole entry, looked up): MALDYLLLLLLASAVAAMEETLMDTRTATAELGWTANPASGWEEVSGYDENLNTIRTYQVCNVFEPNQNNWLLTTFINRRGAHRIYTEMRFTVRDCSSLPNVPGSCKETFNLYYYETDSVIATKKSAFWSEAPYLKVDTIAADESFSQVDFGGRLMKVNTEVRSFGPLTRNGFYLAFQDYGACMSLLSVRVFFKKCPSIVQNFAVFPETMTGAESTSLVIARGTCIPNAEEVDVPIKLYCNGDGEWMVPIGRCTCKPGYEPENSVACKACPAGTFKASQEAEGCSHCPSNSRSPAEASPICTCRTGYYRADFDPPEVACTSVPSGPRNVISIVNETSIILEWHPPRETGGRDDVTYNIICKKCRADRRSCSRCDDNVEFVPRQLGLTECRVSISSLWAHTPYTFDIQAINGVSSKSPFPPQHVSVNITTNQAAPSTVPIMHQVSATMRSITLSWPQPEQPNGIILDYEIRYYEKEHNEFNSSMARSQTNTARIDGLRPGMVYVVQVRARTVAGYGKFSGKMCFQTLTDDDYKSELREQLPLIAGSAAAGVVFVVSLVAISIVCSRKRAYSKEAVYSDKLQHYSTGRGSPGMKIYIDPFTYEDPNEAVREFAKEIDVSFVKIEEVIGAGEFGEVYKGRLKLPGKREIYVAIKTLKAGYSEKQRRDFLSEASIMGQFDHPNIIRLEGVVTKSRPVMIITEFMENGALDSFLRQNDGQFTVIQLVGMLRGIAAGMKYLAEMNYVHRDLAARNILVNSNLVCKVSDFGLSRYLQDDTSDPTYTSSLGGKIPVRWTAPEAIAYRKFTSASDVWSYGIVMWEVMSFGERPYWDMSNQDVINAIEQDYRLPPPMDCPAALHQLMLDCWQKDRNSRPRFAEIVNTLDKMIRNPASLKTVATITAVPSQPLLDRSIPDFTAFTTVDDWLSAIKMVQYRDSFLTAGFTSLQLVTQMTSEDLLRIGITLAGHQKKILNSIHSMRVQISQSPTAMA

Jak2 = Jak2 (UniProt O60674); experiment: as above
Chain of Jak2 (O60674 whole entry, looked up): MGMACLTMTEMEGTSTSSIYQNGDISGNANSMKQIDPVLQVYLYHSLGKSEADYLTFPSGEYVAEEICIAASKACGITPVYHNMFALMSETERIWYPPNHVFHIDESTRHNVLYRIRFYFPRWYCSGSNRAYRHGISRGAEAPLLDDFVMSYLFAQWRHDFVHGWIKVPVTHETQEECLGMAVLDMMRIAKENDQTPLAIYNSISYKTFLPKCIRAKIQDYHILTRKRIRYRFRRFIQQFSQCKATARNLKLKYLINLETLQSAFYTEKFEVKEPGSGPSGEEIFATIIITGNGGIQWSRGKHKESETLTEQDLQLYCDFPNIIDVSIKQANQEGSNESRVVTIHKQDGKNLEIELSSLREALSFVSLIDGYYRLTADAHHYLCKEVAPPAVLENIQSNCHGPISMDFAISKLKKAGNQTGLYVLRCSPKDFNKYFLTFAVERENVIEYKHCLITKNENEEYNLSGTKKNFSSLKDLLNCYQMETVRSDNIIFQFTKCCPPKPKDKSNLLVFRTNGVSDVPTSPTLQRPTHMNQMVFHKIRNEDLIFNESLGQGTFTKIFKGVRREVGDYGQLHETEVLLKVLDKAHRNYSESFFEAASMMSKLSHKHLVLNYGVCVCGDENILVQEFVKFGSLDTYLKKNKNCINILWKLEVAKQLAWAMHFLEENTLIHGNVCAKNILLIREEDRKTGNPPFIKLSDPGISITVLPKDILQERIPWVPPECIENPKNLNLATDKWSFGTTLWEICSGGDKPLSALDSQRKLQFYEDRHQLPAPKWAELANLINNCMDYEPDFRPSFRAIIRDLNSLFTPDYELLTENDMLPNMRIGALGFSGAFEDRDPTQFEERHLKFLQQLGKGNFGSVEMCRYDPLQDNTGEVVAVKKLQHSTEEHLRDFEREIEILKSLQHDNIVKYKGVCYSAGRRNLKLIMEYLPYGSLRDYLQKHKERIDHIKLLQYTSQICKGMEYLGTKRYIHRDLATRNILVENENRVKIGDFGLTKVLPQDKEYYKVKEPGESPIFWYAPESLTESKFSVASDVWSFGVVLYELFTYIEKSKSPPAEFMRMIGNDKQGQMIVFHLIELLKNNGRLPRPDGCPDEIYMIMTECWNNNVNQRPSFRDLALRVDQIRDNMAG

Fes = Fes (UniProt P07332); experiment: as above
Fer (mouse) = experiment: as above
EPHB2 = EPHB2 (UniProt P29323); experiment: as above
Chain of EPHB2 (P29323 whole entry, looked up): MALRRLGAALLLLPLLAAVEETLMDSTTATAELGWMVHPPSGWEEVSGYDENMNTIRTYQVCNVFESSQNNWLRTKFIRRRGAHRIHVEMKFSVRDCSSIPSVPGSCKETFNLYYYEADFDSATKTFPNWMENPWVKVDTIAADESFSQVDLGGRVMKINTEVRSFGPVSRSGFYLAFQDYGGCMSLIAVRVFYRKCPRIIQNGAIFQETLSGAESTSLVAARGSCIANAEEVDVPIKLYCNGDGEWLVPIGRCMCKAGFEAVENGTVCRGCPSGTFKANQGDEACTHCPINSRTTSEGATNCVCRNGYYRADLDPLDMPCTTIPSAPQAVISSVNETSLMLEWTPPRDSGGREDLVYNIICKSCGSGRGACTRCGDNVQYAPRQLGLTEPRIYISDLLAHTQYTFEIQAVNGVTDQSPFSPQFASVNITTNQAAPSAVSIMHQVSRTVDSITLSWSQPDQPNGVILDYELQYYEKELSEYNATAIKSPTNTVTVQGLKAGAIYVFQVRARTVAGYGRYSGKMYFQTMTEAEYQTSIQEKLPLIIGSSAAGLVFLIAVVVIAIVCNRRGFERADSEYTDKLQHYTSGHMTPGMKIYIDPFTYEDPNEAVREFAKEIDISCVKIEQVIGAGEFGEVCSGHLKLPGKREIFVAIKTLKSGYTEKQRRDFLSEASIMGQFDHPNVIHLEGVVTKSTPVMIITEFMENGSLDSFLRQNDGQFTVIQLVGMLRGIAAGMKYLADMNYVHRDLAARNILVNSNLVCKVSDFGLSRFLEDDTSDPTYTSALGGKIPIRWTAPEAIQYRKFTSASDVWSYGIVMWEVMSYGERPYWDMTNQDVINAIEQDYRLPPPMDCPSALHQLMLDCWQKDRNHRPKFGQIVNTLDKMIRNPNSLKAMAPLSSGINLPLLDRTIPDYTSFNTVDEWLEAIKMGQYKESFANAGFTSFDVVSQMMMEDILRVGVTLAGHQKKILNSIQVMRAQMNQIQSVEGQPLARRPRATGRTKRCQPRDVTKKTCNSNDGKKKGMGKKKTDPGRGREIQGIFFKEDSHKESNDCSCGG

MERTK = MERTK (UniProt Q12866); experiment: as above
Fyn = Fyn (UniProt P06241); experiment: as above
Chain of Fyn (P06241 whole entry, looked up): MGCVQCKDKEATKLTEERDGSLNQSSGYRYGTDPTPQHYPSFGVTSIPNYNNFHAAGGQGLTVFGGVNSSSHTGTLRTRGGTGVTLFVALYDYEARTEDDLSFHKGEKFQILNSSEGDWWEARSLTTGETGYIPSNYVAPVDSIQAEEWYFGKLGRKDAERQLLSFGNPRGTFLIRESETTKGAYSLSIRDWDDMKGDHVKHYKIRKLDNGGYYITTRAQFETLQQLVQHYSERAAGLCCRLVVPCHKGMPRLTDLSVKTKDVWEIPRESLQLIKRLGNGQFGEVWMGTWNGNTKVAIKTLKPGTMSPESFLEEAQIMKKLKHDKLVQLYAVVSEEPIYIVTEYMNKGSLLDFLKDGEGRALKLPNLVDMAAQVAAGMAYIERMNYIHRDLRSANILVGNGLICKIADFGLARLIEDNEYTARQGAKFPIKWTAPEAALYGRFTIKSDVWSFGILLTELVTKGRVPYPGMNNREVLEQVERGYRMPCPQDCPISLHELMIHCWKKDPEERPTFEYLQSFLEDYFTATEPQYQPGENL

FGFR1 = FGFR1 (UniProt P11362); experiment: as above
FGFR3 = FGFR3 (UniProt P22607); experiment: as above
Chain of FGFR3 (P22607 whole entry, looked up, the tested form may be a part): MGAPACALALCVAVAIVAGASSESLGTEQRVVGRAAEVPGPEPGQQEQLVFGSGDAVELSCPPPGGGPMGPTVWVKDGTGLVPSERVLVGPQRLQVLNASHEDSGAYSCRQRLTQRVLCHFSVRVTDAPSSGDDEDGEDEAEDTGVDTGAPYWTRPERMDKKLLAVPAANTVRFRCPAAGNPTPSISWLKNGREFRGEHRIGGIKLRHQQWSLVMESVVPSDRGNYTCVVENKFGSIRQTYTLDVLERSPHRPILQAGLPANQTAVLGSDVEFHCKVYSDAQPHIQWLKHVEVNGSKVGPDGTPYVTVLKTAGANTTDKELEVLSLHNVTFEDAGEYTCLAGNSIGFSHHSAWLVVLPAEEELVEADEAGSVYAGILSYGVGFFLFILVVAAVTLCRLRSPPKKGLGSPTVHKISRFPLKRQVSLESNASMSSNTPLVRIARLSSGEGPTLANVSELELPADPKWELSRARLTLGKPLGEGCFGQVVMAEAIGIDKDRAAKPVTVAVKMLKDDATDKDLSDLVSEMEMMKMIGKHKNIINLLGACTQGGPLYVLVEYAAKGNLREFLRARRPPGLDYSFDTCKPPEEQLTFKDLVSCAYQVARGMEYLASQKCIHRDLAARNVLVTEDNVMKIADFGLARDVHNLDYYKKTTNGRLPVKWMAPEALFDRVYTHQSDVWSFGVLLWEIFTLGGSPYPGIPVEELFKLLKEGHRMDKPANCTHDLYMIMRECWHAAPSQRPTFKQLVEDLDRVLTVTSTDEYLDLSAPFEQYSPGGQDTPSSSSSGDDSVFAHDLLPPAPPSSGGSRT
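Throughout, for SH2 binding enrichment of the phosphorylated peptide, bacterial display: peptide library displayed on the E. coli surface as eCPX fusions, selected cells deep-sequenced, score is each peptide's frequency after selection divided by its frequency in the input.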
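Throughout, for phosphorylation enrichment, bacterial display: 11-residue human phosphosite peptides and single-mutation variants displayed on the E. coli surface, counted by deep sequencing, each peptide's frequency after selection divided by its frequency in the unselected input library; frequency after pTyr selection over input frequency; kinase dosed for 20-30% of maximal phosphorylation in three min.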

Sequence | SH2 binding enrichment (SHP2-C SH2) | SH2 binding enrichment (Grb2 SH2) | SH2 binding enrichment (c-Src SH2) | phosphorylation enrichment (c-Abl (mouse)) | phosphorylation enrichment (Hck) | phosphorylation enrichment (c-Src) | phosphorylation enrichment (AncSZ) | phosphorylation enrichment (EPHB1) | phosphorylation enrichment (Jak2) | phosphorylation enrichment (Fes) | phosphorylation enrichment (Fer (mouse)) | phosphorylation enrichment (EPHB2) | phosphorylation enrichment (MERTK) | phosphorylation enrichment (Fyn) | phosphorylation enrichment (FGFR1) | phosphorylation enrichment (FGFR3)
DFSLKYPTDIP [APC_Y1183_A1184P_YF] | 0.618 | 0.768 | 0.386 | 0.702 | 0.46 | 0.534 | 1.03 | 0.528 | 0.943 | 1.18 | 0.616 | 0.599 | 0.52 | 0.452 | 0.459 | 0.685
LDLSYYHTSSS [EMD_Y182_P183H] | 1.36 | 1.26 | 1.19 | 0.672 | 0.452 | 0.676 | 0.929 | 0.516 | 1.51 | 0.977 | 0.451 | 0.614 | 0.634 | 0.509 | 1.11 | 1.22
SYKNKYGMVAQ [APOB_Y276] | 0.786 | 1.01 | 0.613 | 0.562 | 0.442 | 0.569 | 0.555 | 0.333 | 0.483 | 0.674 | 0.398 | 0.333 | 0.335 | 0.367 | 0.385 | 0.385
LDFPEYDGVDR [CASQ1_Y43] | 0.667 | 1.57 | 0.625 | 1.48 | 1.11 | 1.5 | 2.6 | 0.633 | 2 | 2.01 | 0.719 | 0.865 | 0.556 | 0.75 | 0.59 | 1.37
YPPDGYSRHYE [CTNND1_Y213] | 1.04 | 0.911 | 1.21 | 0.355 | 0.414 | 0.354 | 0.561 | 0.388 | 0.534 | 0.655 | 0.354 | 0.394 | 0.395 | 0.348 | 0.451 | 0.548
IGEGTYRTVFK [CDK5_Y15_G16R] | 0.614 | 0.674 | 0.47 | 0.638 | 0.532 | 0.558 | 0.542 | 0.362 | 0.781 | 0.738 | 0.317 | 0.432 | 0.384 | 0.459 | 0.353 | 0.533
QLFGPYLRIHA [BSCL2_Y213_A212P_YF] | 1.54 | 1.33 | 1.17 | 0.628 | 0.515 | 0.785 | 1.25 | 1.13 | 1.35 | 1.56 | 0.427 | 0.548 | 0.485 | 0.588 | 0.733 | 1.03

Continued, in another order:

SH2 binding enrichment (SHP2-C SH2) | SH2 binding enrichment (Grb2 SH2) | SH2 binding enrichment (c-Src SH2) | Sequence | phosphorylation enrichment (c-Abl (mouse)) | phosphorylation enrichment (Hck) | phosphorylation enrichment (c-Src) | phosphorylation enrichment (AncSZ) | phosphorylation enrichment (EPHB1) | phosphorylation enrichment (Jak2) | phosphorylation enrichment (Fes) | phosphorylation enrichment (Fer (mouse)) | phosphorylation enrichment (EPHB2) | phosphorylation enrichment (MERTK) | phosphorylation enrichment (Fyn) | phosphorylation enrichment (FGFR1) | phosphorylation enrichment (FGFR3)
5.53 | 1.33 | 2.73 | CTTIHYHYMCN [TP53_Y234_N235H] | 0.661 | 0.551 | 0.414 | 0.964 | 0.551 | 0.668 | 0.963 | 0.523 | 0.425 | 0.446 | 0.561 | 0.568 | 0.667
0.726 | 0.965 | 0.463 | TGDFGYRAPGF [TNS2_Y668_YF] | 1.02 | 0.409 | 0.593 | 0.724 | 0.501 | 0.724 | 0.784 | 0.44 | 0.414 | 0.542 | 0.6 | 0.542 | 0.601
0.594 | 0.476 | 0.395 | RLRKYHLGKYL [KLB_Y906_Y906H] | 0.61 | 0.253 | 0.387 | 0.726 | 0.439 | 0.483 | 0.498 | 0.426 | 0.399 | 0.503 | 0.318 | 0.29 | 0.464
1.34 | 1.7 | 1.35 | LLVVLNKFRCF [PSEN1_Y154_Y154N_YF] | 2.08 | 0.837 | 1.05 | 1.82 | 0.951 | 1.66 | 1.88 | 0.951 | 1.11 | 0.795 | 1.02 | 1.1 | 1.18
0.753 | 0.87 | 0.492 | TGNGYYFRVFS [MYBPC3_Y1136_I1131T] | 0.818 | 0.436 | 0.332 | 1.04 | 0.707 | 1.41 | 1.3 | 0.594 | 0.657 | 0.353 | 0.334 | 0.542 | 0.766
0.968 | 1.16 | 4.73 | RLLRGYDQLAF [HLA-C_Y137_S140L_YF] | 0.926 | 0.554 | 0.62 | 0.898 | 0.464 | 1.08 | 0.838 | 0.498 | 0.479 | 0.495 | 0.435 | 0.415 | 0.639
1.31 | 1.27 | 0.932 | KFWREYILSLE [GPC3_Y299_YF] | 0.912 | 0.452 | 0.588 | 0.999 | 0.552 | 0.997 | 1.2 | 0.422 | 0.666 | 0.431 | 0.462 | 0.478 | 0.72
0.881 | 0.972 | 0.753 | GGFTRYCDGKK [PROS1_Y266_C265R_YF] | 0.601 | 0.403 | 0.423 | 0.771 | 0.393 | 0.653 | 0.722 | 0.436 | 0.315 | 0.403 | 0.368 | 0.369 | 0.449
